Read-outs that look alike come from different tables or passages of the source.
B1: Rubisco activase ('Rca-like' protein) of Nostoc sp. PCC 7120 (natural protein, UniProt P58555 2-414, looked up)
chain: SYYIAPRFLDKLAVHITKNFLNIPGVRVPLILGIHGRKGEGKTFQCELAFEKMGIEVTLISGGELESPDAGDPARLIRLRYRETAELIKVRGKMCVLMINDLDAGAGRFDEGTQYTVNTQLVNATLMNIADNPTDVQLPGSYDSNPIRRVPIIVTGNDFSTLYAPLIRDGRMEKFYWEPNRDDKVGIVGGIFAEDGLSQREIEQLVDTFPKQSIDFFSALRSRIYDIQIRDFIHKVGFERISLRVVNSLEAPPEFKKPDFSLAHLIESGNLVLGEQQRVDNSQLVDEYNRLNRGRGYQTAPPPEAPVIQPVNNSSHKQKTSNTHLSLETQEQIRQILSQGHKITFEHVDARRFRTGSWQSCGTLHIDAESDAISTLEACLVDYDGEYVRMVGIDPKGKRRVVETIIQRPNGKN
B2: Rubisco large subunit of Nostoc sp. PCC 7120 (natural protein, UniProt P00879 1-476, looked up)
chain: MSYAQTKTQTKSGYKAGVQDYRLTYYTPDYTPKDTDILAAFRVTPQPGVPFEEAAAAVAAESSTGTWTTVWTDLLTDLDRYKGRCYDIEPVPGEDNQFIAYIAYPLDLFEEGSITNVLTSIVGNVFGFKALRALRLEDIRFPVAYIKTFQGPPHGIQVERDKLNKYGRPLLGCTIKPKLGLSAKNYGRAVYECLRGGLDFTKDDENINSAPFQRWRDRFLFVADAITKAQAETGEIKGHYLNVTAPTCEEMLKRAEYAKELKQPIIMHDYLTAGFTANTTLARWCRDNGVLLHIHRAMHAVIDRQKNHGIHFRVLAKALRLSGGDHIHTGTVVGKLEGERGITMGFVDLLRENYVEQDKSRGIYFTQDWASLPGVMAVASGGIHVWHMPALVEIFGDDSVLQFGGGTLGHPWGNAPGATANRVALEACVQARNEGRNLAREGNDVIREAAKWSPELAVACELWKEIKFEFEAMDTV
B3: Rubisco small subunit of Nostoc sp. PCC 7120 (natural protein, UniProt P06514 1-109, looked up)
chain: MQTLPKERRYETLSYLPPLTDVQIEKQVQYILSQGYIPAVEFNEVSEPTELYWTLWKLPLFGAKTSREVLAEVQSCRSQYPGHYIRVVGFDNIKQCQILSFIVHKPSRY
B4: NosRcaΔC (NosRca lacking the C-terminal 123 residues: linker and SSUL domain) (domain or fragment, Nostoc sp. PCC 7120, UniProt P58555 2-291, looked up)
chain: SYYIAPRFLDKLAVHITKNFLNIPGVRVPLILGIHGRKGEGKTFQCELAFEKMGIEVTLISGGELESPDAGDPARLIRLRYRETAELIKVRGKMCVLMINDLDAGAGRFDEGTQYTVNTQLVNATLMNIADNPTDVQLPGSYDSNPIRRVPIIVTGNDFSTLYAPLIRDGRMEKFYWEPNRDDKVGIVGGIFAEDGLSQREIEQLVDTFPKQSIDFFSALRSRIYDIQIRDFIHKVGFERISLRVVNSLEAPPEFKKPDFSLAHLIESGNLVLGEQQRVDNSQLVDEYNR
B5: NosRcaΔC V91E/R92G/G93N (domain or fragment, Nostoc sp. PCC 7120, UniProt P58555 2-291, looked up)
chain: SYYIAPRFLDKLAVHITKNFLNIPGVRVPLILGIHGRKGEGKTFQCELAFEKMGIEVTLISGGELESPDAGDPARLIRLRYRETAELIKEGNKMCVLMINDLDAGAGRFDEGTQYTVNTQLVNATLMNIADNPTDVQLPGSYDSNPIRRVPIIVTGNDFSTLYAPLIRDGRMEKFYWEPNRDDKVGIVGGIFAEDGLSQREIEQLVDTFPKQSIDFFSALRSRIYDIQIRDFIHKVGFERISLRVVNSLEAPPEFKKPDFSLAHLIESGNLVLGEQQRVDNSQLVDEYNR
B6: NosRcaΔC P140G/Y143A/D144A (domain or fragment, Nostoc sp. PCC 7120, UniProt P58555 2-291, looked up)
chain: SYYIAPRFLDKLAVHITKNFLNIPGVRVPLILGIHGRKGEGKTFQCELAFEKMGIEVTLISGGELESPDAGDPARLIRLRYRETAELIKVRGKMCVLMINDLDAGAGRFDEGTQYTVNTQLVNATLMNIADNPTDVQLGGSAASNPIRRVPIIVTGNDFSTLYAPLIRDGRMEKFYWEPNRDDKVGIVGGIFAEDGLSQREIEQLVDTFPKQSIDFFSALRSRIYDIQIRDFIHKVGFERISLRVVNSLEAPPEFKKPDFSLAHLIESGNLVLGEQQRVDNSQLVDEYNR
B7: NosRcaΔC L244D/N248A/L250A (domain or fragment, Nostoc sp. PCC 7120, UniProt P58555 2-291, looked up)
chain: SYYIAPRFLDKLAVHITKNFLNIPGVRVPLILGIHGRKGEGKTFQCELAFEKMGIEVTLISGGELESPDAGDPARLIRLRYRETAELIKVRGKMCVLMINDLDAGAGRFDEGTQYTVNTQLVNATLMNIADNPTDVQLPGSYDSNPIRRVPIIVTGNDFSTLYAPLIRDGRMEKFYWEPNRDDKVGIVGGIFAEDGLSQREIEQLVDTFPKQSIDFFSALRSRIYDIQIRDFIHKVGFERISDRVVASAEAPPEFKKPDFSLAHLIESGNLVLGEQQRVDNSQLVDEYNR
B8: NosRca-IFmut (NosRca V91E/R92G/G93N/L244D/N248A/L250A) (natural protein, Nostoc sp. PCC 7120, UniProt P58555 2-414, looked up)
chain: SYYIAPRFLDKLAVHITKNFLNIPGVRVPLILGIHGRKGEGKTFQCELAFEKMGIEVTLISGGELESPDAGDPARLIRLRYRETAELIKEGNKMCVLMINDLDAGAGRFDEGTQYTVNTQLVNATLMNIADNPTDVQLPGSYDSNPIRRVPIIVTGNDFSTLYAPLIRDGRMEKFYWEPNRDDKVGIVGGIFAEDGLSQREIEQLVDTFPKQSIDFFSALRSRIYDIQIRDFIHKVGFERISDRVVASAEAPPEFKKPDFSLAHLIESGNLVLGEQQRVDNSQLVDEYNRLNRGRGYQTAPPPEAPVIQPVNNSSHKQKTSNTHLSLETQEQIRQILSQGHKITFEHVDARRFRTGSWQSCGTLHIDAESDAISTLEACLVDYDGEYVRMVGIDPKGKRRVVETIIQRPNGKN

Assays:
SEC-MALS = target: the molecule itself; experiment: SEC-MALS
[1] = target: B2; experiment: cryo-EM structure
cryo-EM structure = target: the molecule itself; experiment: cryo-EM structure
[2] = target: B2; experiment: cryo-EM structure; remark: listed apart in the source

Binder | stoichiometry N (SEC-MALS) | also measured
B1 | 6 | binding result [1]: binds
B2 | – | binding result (cryo-EM structure): binds
B3 | – | binding result [2]: binds
B4 | 6 | –
B5 | 6 | –
B6 | 6 | –
B7 | 6 | –
B8 | 6 | –
